Measurements published in PMC6436931, “Activation of the Endonuclease that Defines mRNA 3′ Ends Requires Incorporation into an 8-Subunit Core Cleavage and Polyadenylation Factor Complex” (Molecular Cell, 2019).

Experiments:
[1] = biological target: Cft1;Pfs2;Yth1;Fip1;Pap1;Cft2 (Saccharomyces cerevisiae;Saccharomyces …, UniProt Q06632;P42841;Q06102;P45976;P29468;Q12102 1-1357;1-465;1-208;1-327;1-568;1-859, |||||); assay: EMSA; CPFpol + Cft2; EMSA: 50 nM RNA, 0.25-4.0 uM protein, protein diluted in 10 mM HEPES pH 7.9, 150 mM NaCl, 0.5 mM Mg(OAc)2, plus 1x loading dye (orange G, glycerol, EDTA); 30 min on ice; native 6% acrylamide/TBE PAGE; conditions: protein: recombinant;recombinant;recombinant;recombinant;recombinant;recombinant, tags: ;3C-SII;3C-8H, untagged in CPFpol+Cft2;;SII (Pap1-SII) when alone, untagged in CPFpol and CPFcore;SII (Cft2-SII) when alone, copies: 1;2;1;1;1;1, label: 5'-FAM
Ysh1;Yjr141w = biological target: T1, Ysh1;Yjr141w (Saccharomyces cerevisiae;Saccharomyces …, UniProt Q06224;P47172 1-779;1-347, |); assay: EMSA; EMSA: 50 nM RNA, 0.25-4.0 uM protein, protein diluted in 10 mM HEPES pH 7.9, 150 mM NaCl, 0.5 mM Mg(OAc)2, plus 1x loading dye (orange G, glycerol, EDTA); 30 min on ice; native 6% acrylamide/TBE PAGE; conditions: protein: recombinant;recombinant; tags: ;SII-3C (N-terminal) in Ysh1-Yjr141w; untagged in Ysh1-Mpe1-Yjr141w; copies: 1;1; label: 5'-FAM
T1 sequence 1: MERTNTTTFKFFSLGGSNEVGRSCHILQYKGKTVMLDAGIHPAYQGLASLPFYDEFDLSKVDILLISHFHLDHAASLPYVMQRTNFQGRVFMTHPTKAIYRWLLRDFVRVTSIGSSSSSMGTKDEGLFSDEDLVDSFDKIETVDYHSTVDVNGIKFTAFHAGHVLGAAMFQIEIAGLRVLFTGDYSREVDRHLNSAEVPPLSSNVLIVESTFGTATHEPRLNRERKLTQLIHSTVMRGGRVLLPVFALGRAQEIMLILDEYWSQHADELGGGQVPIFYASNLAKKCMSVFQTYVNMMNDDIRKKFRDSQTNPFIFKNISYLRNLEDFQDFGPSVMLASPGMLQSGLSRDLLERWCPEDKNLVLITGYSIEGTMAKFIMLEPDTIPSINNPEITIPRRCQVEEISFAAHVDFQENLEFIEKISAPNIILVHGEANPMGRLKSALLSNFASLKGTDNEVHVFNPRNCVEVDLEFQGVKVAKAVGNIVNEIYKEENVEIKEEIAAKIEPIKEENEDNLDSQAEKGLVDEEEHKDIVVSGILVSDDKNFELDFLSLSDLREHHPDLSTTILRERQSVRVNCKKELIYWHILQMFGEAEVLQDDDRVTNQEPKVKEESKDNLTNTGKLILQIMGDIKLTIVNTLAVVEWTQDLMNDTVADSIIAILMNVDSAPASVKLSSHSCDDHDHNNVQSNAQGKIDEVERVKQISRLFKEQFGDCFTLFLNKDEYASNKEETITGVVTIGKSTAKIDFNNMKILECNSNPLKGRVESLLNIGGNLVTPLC
T1 sequence 2: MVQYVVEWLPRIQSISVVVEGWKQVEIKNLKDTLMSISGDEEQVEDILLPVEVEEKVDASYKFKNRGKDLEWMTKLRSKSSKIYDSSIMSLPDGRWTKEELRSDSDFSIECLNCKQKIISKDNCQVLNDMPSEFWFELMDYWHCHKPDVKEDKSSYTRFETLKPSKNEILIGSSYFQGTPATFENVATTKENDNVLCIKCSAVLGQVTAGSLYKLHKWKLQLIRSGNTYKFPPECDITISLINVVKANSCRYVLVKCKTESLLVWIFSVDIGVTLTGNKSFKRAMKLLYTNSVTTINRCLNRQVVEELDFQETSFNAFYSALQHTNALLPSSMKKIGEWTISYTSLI

Rna14;Rna15;Pcf11;Clp1 = Rna14;Rna15;Pcf11;Clp1 (Saccharomyces cerevisiae;Saccharomyces …, UniProt P25298;P25299;P39081;Q08685 1-677;1-296;1-626;1-445, |||); assay: EMSA; CF IA; EMSA: 50 nM RNA, 0.25-4.0 uM protein, protein diluted in 10 mM HEPES pH 7.9, 150 mM NaCl, 0.5 mM Mg(OAc)2, plus 1x loading dye (orange G, glycerol, EDTA); 30 min on ice; native 6% acrylamide/TBE PAGE; conditions: protein: recombinant;recombinant;recombinant;recombinant; tags: 6H;;6H;; chain copies: 2;2;1;1; label: 5'-FAM
Sequence of Rna14;Rna15;Pcf11;Clp1 (P25298 whole entry, chain 1 of 4): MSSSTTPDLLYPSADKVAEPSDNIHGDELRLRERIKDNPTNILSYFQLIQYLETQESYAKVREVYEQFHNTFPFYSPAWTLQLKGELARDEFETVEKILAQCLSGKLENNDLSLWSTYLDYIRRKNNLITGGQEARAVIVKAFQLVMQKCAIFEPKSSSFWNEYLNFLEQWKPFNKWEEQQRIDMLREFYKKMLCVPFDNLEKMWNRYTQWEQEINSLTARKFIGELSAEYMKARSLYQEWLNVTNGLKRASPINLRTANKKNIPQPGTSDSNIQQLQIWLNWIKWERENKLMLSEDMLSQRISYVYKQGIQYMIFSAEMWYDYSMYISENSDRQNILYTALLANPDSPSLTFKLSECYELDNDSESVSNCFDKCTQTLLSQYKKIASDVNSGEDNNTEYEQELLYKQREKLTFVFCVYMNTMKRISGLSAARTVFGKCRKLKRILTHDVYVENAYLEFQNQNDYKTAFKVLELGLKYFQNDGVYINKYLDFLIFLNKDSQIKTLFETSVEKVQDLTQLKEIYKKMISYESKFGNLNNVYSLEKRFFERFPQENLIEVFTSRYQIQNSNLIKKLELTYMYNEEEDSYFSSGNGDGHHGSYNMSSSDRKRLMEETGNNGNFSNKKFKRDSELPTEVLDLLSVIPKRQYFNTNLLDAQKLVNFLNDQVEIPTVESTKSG
Sequence of Rna14;Rna15;Pcf11;Clp1 (P25299 whole entry, chain 2 of 4): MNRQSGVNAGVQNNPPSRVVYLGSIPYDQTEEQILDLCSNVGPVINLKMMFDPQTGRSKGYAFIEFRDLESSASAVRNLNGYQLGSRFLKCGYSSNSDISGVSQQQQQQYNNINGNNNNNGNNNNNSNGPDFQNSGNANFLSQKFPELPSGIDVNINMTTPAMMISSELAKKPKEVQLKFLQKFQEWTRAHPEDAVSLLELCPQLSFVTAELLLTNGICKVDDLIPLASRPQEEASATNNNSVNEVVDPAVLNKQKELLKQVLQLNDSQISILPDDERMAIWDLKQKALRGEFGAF
Sequence of Rna14;Rna15;Pcf11;Clp1 (P39081 whole entry, chain 3 of 4): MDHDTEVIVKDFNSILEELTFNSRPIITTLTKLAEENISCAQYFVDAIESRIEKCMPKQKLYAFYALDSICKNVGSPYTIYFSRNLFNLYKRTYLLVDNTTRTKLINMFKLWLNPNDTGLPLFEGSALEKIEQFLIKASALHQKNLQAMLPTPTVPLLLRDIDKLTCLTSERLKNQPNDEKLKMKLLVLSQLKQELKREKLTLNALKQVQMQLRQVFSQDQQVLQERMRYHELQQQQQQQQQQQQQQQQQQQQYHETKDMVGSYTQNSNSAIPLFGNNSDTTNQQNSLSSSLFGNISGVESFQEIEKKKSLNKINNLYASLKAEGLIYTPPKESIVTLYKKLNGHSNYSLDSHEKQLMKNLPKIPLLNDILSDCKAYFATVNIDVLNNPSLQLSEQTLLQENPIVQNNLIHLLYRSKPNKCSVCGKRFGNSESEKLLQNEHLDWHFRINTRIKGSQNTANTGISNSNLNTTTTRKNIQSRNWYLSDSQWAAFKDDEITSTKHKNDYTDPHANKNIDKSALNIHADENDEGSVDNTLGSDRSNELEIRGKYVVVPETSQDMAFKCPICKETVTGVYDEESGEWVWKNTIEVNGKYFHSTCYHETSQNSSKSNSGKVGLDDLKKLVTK
Sequence of Rna14;Rna15;Pcf11;Clp1 (Q08685 whole entry, chain 4 of 4): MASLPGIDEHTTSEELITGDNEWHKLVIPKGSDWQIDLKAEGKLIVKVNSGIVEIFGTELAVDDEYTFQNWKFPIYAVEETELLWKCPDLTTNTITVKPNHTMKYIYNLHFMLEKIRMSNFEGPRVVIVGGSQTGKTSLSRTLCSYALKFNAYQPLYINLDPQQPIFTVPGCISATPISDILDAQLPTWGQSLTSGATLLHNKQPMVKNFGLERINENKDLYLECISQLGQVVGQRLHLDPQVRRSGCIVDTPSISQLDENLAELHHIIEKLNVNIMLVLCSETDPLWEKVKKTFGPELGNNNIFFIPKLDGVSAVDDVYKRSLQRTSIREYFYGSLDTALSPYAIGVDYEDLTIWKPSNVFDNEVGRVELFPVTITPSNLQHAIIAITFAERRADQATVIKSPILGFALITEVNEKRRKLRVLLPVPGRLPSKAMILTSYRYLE

## CCCCCCCCCCCCCCC (ssRNA) [C15]
[1]
  binding result: no binding
Ysh1;Yjr141w
  binding result: no binding
Rna14;Rna15;Pcf11;Clp1
  binding result: no binding

## AAAAAAAAAAAAAAA (ssRNA) [A15]
[1]
  binding result: binds
Ysh1;Yjr141w
  binding result: no binding
Rna14;Rna15;Pcf11;Clp1
  binding result: no binding

## AAGAACGUUAUUUAUAUUUCAAAUUUUUCUUUUUU (ssRNA) [CYC1d EMSA probe]
[1]
  binding result: binds
Ysh1;Yjr141w
  binding result: no binding
Rna14;Rna15;Pcf11;Clp1
  binding result: binds

## GGGGGGGGGGGGGGG (ssRNA) [G15]
[1]
  binding result: binds
Ysh1;Yjr141w
  binding result: no binding
Rna14;Rna15;Pcf11;Clp1
  binding result: binds

## CGUUAUUUAUAUUUCAAAUUUUUCU (ssRNA) [CYC1f EMSA probe]
[1]
  binding result: binds
Ysh1;Yjr141w
  binding result: no binding
Rna14;Rna15;Pcf11;Clp1
  binding result: binds

## UUUUUUUUUUUUUUU (ssRNA) [U15]
[1]
  binding result: no binding
Ysh1;Yjr141w
  binding result: no binding
Rna14;Rna15;Pcf11;Clp1
  binding result: binds
